Experiments:
Assay in all cases: IP/MS, LZTR1 R810W-FLAG, U87
RNF213 = RNF213 (human, UniProt Q63HN8 1-5207, limits assumed)
Procedure, shortened: (§1)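 Extracted peptides in 3% acetonitrile/0.1% formic acid ran on a 50 cm C18 column into an Orbitrap Fusion, with MaxQuant identification and spectral counting.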

FBX038 = molecular target: T1, FBX038 (human, UniProt Q6PIJ6 1-1188, limits assumed)
T1 construct: Printed with a zero; probably FBXO38
T1 sequence (looked up): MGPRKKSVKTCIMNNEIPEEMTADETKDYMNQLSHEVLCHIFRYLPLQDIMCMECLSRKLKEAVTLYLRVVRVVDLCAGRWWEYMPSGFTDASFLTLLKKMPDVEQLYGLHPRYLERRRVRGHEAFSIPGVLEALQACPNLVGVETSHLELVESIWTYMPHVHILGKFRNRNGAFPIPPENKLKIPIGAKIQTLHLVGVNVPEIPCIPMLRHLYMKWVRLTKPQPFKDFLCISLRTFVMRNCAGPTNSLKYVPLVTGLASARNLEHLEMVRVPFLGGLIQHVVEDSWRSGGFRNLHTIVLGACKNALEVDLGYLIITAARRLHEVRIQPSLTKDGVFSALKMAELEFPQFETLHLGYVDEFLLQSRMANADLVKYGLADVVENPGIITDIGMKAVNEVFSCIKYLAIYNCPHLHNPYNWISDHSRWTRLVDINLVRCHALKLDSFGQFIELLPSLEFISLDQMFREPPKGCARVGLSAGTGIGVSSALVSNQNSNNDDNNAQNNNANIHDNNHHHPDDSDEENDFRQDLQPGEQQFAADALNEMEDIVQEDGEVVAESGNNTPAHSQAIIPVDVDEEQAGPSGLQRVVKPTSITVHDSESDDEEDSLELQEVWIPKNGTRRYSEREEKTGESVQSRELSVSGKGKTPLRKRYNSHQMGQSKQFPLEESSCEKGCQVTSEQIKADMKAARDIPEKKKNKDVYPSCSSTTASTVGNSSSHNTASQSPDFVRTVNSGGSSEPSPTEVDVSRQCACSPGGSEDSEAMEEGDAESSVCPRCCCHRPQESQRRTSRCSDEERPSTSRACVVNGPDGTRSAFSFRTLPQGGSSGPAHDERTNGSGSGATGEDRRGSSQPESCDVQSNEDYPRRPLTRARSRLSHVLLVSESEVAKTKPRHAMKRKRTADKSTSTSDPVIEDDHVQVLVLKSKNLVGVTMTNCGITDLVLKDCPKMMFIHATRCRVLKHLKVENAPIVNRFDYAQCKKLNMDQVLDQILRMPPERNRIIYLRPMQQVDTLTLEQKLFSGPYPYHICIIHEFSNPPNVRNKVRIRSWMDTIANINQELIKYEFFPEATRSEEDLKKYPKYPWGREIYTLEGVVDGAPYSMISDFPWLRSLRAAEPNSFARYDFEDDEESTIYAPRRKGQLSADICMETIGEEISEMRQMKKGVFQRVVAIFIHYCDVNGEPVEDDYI
Procedure, shortened: as §1

STK11IP = molecular target: T2, STK11IP (human, UniProt Q8N1F8 1-1088)
T2 sequence (looked up): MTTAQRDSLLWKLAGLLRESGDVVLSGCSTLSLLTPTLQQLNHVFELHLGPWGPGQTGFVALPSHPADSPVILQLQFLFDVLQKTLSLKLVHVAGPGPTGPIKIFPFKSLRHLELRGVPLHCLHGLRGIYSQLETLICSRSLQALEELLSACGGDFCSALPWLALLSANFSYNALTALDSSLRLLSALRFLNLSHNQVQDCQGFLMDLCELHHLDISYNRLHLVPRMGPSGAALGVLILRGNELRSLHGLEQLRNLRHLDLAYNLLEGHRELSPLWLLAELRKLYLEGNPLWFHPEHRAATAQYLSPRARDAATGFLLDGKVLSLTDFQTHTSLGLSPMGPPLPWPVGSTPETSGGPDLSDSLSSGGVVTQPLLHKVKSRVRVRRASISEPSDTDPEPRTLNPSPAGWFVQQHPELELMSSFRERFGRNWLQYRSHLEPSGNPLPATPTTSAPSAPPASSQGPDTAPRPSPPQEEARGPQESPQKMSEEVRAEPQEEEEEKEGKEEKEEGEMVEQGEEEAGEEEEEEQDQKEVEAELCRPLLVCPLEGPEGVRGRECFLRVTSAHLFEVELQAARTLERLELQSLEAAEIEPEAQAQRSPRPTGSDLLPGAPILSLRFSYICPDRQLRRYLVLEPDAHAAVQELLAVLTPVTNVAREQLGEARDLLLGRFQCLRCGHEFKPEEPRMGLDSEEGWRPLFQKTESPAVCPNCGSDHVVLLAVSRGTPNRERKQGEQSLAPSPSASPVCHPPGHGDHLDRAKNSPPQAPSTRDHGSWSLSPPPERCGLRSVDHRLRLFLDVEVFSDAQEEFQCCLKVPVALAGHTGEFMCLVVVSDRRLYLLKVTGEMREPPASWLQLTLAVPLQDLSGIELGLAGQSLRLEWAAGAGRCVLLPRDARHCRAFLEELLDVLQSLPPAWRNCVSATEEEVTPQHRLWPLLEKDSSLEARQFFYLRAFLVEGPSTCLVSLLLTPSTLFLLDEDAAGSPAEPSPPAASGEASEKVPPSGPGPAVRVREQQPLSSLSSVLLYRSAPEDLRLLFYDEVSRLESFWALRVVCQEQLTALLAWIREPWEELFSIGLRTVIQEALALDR
Procedure, shortened: as §1

Measured: binding result

RNF213, sequence (Q63HN8 whole entry, the tested form may be a part): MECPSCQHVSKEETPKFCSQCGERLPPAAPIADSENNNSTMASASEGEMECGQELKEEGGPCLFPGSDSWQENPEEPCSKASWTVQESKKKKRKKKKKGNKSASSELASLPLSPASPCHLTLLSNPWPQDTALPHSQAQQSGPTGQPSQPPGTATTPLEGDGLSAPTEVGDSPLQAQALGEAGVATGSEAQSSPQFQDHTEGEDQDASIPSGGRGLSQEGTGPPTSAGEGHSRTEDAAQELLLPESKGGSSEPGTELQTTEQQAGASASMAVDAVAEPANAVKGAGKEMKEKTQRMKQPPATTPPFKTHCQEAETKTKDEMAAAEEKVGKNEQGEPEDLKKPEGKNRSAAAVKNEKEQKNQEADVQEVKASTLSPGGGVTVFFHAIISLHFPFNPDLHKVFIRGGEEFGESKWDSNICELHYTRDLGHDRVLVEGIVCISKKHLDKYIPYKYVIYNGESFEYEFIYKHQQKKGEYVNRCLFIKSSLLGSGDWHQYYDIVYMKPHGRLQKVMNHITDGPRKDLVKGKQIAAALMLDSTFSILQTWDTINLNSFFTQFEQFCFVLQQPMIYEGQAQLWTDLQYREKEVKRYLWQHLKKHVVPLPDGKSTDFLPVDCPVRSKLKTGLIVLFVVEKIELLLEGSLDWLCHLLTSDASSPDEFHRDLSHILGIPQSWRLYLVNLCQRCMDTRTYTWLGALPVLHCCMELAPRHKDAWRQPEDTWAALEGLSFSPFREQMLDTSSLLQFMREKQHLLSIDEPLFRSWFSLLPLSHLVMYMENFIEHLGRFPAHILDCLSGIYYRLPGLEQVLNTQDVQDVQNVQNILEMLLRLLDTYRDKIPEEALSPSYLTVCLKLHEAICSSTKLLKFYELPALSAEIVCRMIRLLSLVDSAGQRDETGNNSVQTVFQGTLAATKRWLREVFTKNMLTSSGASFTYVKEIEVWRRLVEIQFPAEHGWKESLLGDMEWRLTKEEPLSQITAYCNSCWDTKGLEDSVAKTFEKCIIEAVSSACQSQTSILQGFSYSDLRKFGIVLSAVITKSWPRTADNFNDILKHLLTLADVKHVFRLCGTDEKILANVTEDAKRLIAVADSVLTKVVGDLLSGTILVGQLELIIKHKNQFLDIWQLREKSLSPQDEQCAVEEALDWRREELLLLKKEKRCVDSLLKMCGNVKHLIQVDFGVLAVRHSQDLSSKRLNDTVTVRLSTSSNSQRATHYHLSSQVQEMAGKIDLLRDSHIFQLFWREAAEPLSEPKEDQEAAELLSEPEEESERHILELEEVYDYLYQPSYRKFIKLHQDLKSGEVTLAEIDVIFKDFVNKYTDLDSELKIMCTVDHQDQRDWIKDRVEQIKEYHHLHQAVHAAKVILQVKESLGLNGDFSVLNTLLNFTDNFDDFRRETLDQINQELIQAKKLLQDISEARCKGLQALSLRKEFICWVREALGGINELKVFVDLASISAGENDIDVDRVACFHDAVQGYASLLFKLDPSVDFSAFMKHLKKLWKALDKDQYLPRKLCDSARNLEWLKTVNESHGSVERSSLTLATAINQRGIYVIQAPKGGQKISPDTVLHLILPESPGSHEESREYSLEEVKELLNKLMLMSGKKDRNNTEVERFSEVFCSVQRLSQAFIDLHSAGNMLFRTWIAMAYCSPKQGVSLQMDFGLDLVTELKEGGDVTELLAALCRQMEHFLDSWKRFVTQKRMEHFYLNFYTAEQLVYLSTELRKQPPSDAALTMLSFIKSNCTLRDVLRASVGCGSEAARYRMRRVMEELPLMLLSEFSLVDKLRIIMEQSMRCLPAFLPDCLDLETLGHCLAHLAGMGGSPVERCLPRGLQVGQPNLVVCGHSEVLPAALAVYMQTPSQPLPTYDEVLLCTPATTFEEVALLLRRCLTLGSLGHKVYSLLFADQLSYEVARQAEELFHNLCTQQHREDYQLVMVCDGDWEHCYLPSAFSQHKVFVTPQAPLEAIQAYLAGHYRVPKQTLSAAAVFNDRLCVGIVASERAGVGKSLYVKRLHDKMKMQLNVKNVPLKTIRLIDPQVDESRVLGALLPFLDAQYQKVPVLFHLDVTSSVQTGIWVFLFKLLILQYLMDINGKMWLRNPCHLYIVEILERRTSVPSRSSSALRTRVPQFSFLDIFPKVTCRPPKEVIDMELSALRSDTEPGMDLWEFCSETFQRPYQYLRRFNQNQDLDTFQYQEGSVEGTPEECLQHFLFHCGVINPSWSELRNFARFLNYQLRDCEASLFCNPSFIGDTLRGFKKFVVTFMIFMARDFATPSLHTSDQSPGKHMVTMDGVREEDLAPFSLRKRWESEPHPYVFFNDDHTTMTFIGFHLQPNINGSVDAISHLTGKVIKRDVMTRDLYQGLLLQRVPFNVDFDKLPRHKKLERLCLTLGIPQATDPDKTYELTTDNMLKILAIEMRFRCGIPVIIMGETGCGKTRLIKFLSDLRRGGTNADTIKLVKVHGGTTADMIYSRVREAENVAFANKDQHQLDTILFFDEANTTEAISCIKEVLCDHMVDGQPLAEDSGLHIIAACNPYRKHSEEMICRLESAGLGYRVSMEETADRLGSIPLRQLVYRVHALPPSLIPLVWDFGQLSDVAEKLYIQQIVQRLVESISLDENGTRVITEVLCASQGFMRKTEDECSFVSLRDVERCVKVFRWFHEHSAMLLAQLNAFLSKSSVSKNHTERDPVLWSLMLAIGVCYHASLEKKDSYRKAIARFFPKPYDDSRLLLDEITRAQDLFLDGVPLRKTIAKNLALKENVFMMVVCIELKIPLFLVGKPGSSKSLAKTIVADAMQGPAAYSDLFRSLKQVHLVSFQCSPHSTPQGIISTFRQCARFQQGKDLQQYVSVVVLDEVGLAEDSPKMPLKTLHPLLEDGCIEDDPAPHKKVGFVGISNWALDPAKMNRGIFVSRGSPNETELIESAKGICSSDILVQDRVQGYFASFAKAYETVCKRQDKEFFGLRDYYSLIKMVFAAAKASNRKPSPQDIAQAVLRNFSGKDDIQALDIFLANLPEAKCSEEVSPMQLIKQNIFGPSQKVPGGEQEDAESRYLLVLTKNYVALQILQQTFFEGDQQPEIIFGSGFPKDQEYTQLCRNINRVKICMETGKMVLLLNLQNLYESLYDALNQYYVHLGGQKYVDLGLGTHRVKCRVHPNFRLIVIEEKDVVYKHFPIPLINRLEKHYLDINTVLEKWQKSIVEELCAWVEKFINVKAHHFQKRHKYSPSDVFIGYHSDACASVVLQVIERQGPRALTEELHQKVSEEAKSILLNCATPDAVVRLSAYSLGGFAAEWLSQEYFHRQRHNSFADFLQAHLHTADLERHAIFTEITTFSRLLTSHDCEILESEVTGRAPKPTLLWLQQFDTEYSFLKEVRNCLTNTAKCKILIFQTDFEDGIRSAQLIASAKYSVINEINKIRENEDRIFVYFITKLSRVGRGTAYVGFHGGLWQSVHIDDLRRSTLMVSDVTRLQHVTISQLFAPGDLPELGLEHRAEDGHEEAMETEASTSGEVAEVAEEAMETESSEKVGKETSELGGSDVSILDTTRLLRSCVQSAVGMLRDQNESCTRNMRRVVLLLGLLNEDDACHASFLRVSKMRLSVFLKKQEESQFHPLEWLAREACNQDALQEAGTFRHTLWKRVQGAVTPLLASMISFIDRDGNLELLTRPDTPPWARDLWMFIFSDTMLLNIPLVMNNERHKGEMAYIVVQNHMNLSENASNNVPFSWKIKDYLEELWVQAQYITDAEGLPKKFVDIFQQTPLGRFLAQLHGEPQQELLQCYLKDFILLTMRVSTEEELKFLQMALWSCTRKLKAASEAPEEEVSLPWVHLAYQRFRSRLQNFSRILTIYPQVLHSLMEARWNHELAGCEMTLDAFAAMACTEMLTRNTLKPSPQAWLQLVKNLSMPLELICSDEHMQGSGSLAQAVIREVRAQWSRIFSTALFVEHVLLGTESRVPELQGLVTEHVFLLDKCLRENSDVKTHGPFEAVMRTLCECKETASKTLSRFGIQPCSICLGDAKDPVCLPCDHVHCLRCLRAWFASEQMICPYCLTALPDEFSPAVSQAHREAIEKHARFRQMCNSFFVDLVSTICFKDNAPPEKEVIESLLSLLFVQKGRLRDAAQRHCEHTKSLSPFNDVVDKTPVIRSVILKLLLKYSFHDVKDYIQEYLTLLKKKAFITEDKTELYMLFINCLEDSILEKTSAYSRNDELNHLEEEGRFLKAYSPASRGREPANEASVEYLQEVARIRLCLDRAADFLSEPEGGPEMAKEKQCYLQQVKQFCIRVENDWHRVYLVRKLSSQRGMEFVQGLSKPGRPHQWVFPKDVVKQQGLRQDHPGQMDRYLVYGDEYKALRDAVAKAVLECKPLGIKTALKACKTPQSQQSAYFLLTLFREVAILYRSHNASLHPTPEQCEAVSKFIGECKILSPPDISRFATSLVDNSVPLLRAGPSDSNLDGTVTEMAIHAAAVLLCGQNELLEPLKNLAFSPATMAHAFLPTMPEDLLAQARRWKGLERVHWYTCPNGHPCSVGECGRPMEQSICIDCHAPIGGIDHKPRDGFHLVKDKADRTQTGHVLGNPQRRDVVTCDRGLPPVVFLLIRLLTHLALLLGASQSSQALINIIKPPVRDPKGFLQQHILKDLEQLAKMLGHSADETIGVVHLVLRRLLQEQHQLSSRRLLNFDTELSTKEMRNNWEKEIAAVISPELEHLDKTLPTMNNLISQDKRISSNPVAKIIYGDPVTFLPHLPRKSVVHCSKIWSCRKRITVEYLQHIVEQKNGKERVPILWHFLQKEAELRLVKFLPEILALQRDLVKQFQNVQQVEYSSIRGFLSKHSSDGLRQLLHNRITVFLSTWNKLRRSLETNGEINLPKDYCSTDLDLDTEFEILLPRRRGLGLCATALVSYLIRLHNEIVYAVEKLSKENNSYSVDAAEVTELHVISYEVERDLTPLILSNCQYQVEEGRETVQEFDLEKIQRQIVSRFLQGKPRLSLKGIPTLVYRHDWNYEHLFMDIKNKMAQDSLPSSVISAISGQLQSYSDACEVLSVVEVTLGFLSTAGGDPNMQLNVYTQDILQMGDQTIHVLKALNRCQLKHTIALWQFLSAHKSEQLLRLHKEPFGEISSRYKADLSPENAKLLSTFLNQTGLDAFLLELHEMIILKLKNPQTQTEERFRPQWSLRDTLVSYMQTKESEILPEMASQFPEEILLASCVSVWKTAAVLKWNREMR

B1: LZTR1 R810W-FLAG (other, human, UniProt Q8N653 1-840, looked up)
chain: MAGPGSTGGQIGAAALAGGARSKVAPSVDFDHSCSDSVEYLTLNFGPFETVHRWRRLPPCDEFVGARRSKHTVVAYKDAIYVFGGDNGKTMLNDLLRFDVKDCSWCRAFTTGTPPAPRYHHSAVVYGSSMFVFGGYTGDIYSNSNLKNKNDLFEYKFATGQWTEWKIEGRLPVARSAHGATVYSDKLWIFAGYDGNARLNDMWTIGLQDRELTCWEEVAQSGEIPPSCCNFPVAVCRDKMFVFSGQSGAKITNNLFQFEFKDKTWTRIPTEHLLRGSPPPPQRRYGHTMVAFDRHLYVFGGAADNTLPNELHCYDVDFQTWEVVQPSSDSEVGGAEVPERACASEEVPTLTYEERVGFKKSRDVFGLDFGTTSAKQPTQPASELPSGRLFHAAAVISDAMYIFGGTVDNNIRSGEMYRFQFSCYPKCTLHEDYGRLWESRQFCDVEFVLGEKEECVQGHVAIVTARSRWLRRKITQARERLAQKLEQEAAPVPREAPGVAAGGARPPLLHVAIREAEARPFEVLMQFLYTDKIKYPRKGHVEDVLLIMDVYKLALSFQLCRLEQLCRQYIEASVDLQNVLVVCESAARLQLSQLKEHCLNFVVKESHFNQVIMMKEFERLSSPLIVEIVRRKQQPPPRTPLDQPVDIGTSLIQDMKAYLEGAGAEFCDITLLLDGHPRPAHKAILAARSSYFEAMFRSFMPEDGQVNISIGEMVPSRQAFESMLRYIYYGEVNMPPEDSLYLFAAPYYYGFYNNRLQAYCKQNLEMNVTVQNVLQILEAADKTQALDMKRHCLHIIVHQFTKVSKLPTLWSLSQQLLLDIIDSLASHISDKQCAELGADI
notes: Stably expressed in U87 cells by lentivirus; also called LZTR1-FLAG-R810W; LZTR1 RW; not shown: FLAG tag
binds: all assays above

Source: patent publication US20250262210A1 (TRUSTEES OF COLUMBIA UNIVERSITY IN THE CITY OF NEW YORK, published 2025)
